Measurements as given in patent publication US20110243962A1 (GENEURO, published 2011).

Columns and labels:
[1] = molecular target: T1, MSRV complete ENV protein (ENV-T), recombinant from E. coli (MSRV (Multiple Sclerosis associated …)); assay: cell-based or functional assay
T1 chain: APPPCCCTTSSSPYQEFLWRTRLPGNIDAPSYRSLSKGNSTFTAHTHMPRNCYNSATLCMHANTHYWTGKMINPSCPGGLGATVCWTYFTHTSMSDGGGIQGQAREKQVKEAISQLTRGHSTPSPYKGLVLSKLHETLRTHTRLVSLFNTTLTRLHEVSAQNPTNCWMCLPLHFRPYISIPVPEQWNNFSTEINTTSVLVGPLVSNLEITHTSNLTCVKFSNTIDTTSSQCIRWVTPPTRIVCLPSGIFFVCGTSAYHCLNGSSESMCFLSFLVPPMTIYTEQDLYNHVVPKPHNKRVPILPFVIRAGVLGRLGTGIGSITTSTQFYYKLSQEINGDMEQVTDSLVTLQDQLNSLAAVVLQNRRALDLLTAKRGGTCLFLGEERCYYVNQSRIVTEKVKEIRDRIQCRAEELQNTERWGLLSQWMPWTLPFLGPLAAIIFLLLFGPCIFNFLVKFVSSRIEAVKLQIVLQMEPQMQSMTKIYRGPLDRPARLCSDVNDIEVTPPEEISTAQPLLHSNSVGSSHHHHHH

[2] = molecular target: T2, MSRV ENV surface domain fragment (ENV-SU), recombinant from E. coli (MSRV (Multiple Sclerosis associated …)); assay: cell-based or functional assay
T2 chain: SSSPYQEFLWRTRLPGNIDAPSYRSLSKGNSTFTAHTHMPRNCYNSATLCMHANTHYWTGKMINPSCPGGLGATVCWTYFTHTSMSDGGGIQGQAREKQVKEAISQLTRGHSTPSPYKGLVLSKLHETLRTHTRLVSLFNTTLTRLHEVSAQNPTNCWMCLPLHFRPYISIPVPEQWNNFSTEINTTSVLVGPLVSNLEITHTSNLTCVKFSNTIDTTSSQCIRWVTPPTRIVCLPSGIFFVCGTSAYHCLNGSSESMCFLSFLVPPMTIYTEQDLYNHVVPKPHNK

B1: Chimeric GNb AC1 IgG4 (human IgG4 constant regions with murine VH and VL) (antibody, V domains shown)
VH: QVQLQQSGAELVRPGASVTLSCKASGYTFTDYEMHWVKQTPVHGLEWIGAVAPETGGTAYNQKFKGKATLTAAKSSSTAYMELRSLTSEDSAVYYCTSTVVPFAYWGQGTLVTVSA
VL: QIVLTQSPAIMSASPGEKVTISCSASSSVSYMYWYQQKPGSSPKAWIYRTSNLASGVPGRFSGSGSGTSYSLTISSMEAEDAATYYCQQYQSLPLTFGSGTKLEIKR
notes: also called GNbAC1 chimeric IgG4; GNbAC1-IgC4
With B1 the “IL-6 at 24 h in PBMC culture with ENV-T 0.1 ug/ml, MAb ratio 10/1 (no antibody: 4363)” value [1] was 2270 and the “IFN-g at 72 h in PBMC culture with ENV-SU 0.5 ug/ml, MAb ratio 10/1 (no antibody: 336)” value [2] was 384.
